According to the supplement of paper PMC12455559:
± gives the standard deviation of the averaged measurements.

Key:
[1] = melting temperature (DSF); higher = more thermostable
How it was run: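 After expression in E. coli C41(DE3), the candidate enzymes were bound to nickel beads and released with SUMO protease. Their melting temperature was found by differential scanning fluorimetry with Sypro Orange on a Bio-Rad CFX96. Each sealed PCR plate well held 45 μL enzyme (0 to 0.3 mg/mL) plus 5 μL 5X dye, and fluorescence was read for 250 cycles from 25 °C at 0.3 °C per cycle (ramp 0.3 °C/s).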

[2] = purified protein yield per well (BCA); higher = higher soluble expression
How it was run: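 Candidate enzymes were produced in E. coli C41(DE3) grown in 2 mL autoinduction cultures containing 100 µg/mL kanamycin, first at 37 °C for 2 h and then at 18 °C for 40 h. After cell lysis, protein was captured on Ni-charged magnetic beads and freed by SUMO protease cleavage on an OT-2 robot. Purified protein yield per well was read with the Pierce Rapid Gold BCA kit. Values under 25 ug (0.1 mg/mL) fall below the detection threshold.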

[3] = PET hydrolysis, aromatic products released after 48 h (umol product/mg enzyme); higher = more PET depolymerization activity
How it was run: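 Hydrolysis activity toward PET is reported as supernatant aromatic product per mg enzyme. To measure it, 5 μg (50 μL) of tagless enzyme was incubated with 3.5 mg amorphous PET film or crystalline PET powder in 450 μL buffer for 48 h at 40 or 60 °C in sealed, unshaken plates. The product was quantified by absorbance at 260 and 280 nm relative to buffer blanks.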

[4] = substrate: aFilm, 40 °C, pH 4.5
[5] = substrate: aFilm, 40 °C, pH 5.5
[6] = substrate: aFilm, 40 °C, pH 6.5
[7] = substrate: aFilm, 40 °C, pH 7.5
[8] = substrate: aFilm, 60 °C, pH 4.5
[9] = substrate: aFilm, 60 °C, pH 5.5
[10] = substrate: aFilm, 60 °C, pH 6.5
[11] = substrate: aFilm, 60 °C, pH 7.5
[12] = substrate: cryPow, 40 °C, pH 4.5
[13] = substrate: cryPow, 40 °C, pH 5.5
[14] = substrate: cryPow, 40 °C, pH 6.5
[15] = substrate: cryPow, 40 °C, pH 7.5
[16] = substrate: cryPow, 60 °C, pH 4.5
[17] = substrate: cryPow, 60 °C, pH 5.5
[18] = substrate: cryPow, 60 °C, pH 6.5
[19] = substrate: cryPow, 60 °C, pH 7.5

| Sequence | melting temperature [1] [C] | purified protein yield per well [2] [µg] | PET hydrolysis [3, 4] | PET hydrolysis [3, 5] | PET hydrolysis [3, 6] | PET hydrolysis [3, 7] | PET hydrolysis [3, 8] | PET hydrolysis [3, 9] | PET hydrolysis [3, 10] | PET hydrolysis [3, 11] | PET hydrolysis [3, 12] | PET hydrolysis [3, 13] | PET hydrolysis [3, 14] | PET hydrolysis [3, 15] | PET hydrolysis [3, 16] | PET hydrolysis [3, 17] | PET hydrolysis [3, 18] | PET hydrolysis [3, 19] |
| --- | --- | --- | --- | --- | --- | --- | --- | --- | --- | --- | --- | --- | --- | --- | --- | --- | --- | --- |
| MLTITVATGSASAADNPYQRGPDPTRTSVTAVNGPFANTSVSVPTGYGFNGGRIYYPTDTSQGTFGAIAISPGYTALFSAELAWMGPWLASHGFVVIGIETNSRNDFDTARGTQLLAALDYLTQQSPVRDRVDPNRLAVAGHSMGGGGALSAATRRSSLKAVVGIAPYSPSSNLANDRVPTMIFAGQADTVVTPSYATGLYNSLPTTTESAYLEVAGADHGFMVGRSNPVMVRTMLPFVKMFIDNDARYSQFLCPLLDSSGVVTYRSTCPLLPSTPPTSTPTPTDPPTPTPTPTVPPGSASEIVGTQSSRCIDVPNASRNNGTRVQLYDCNKQTNQA [ESM121] | 58.9 | 268 | < 3 | < 3 | < 3 | < 3 | < 3 | < 3 | < 3 | < 3 | 5.5 ± 0.71 | 15 ± 1.4 | 11 | 2.5 ± 3.5 | < 3 | < 3 | < 3 | < 3 |
| MMPSADAASTLADNPYQRGPDPTVASVAAAYGTFATAQLTVPPGNGFNGGSIYYPTDTSQTYGAVAIVPGYTARFADEEAWMGPRLASFGFVVIGVETNSRNDFDTARGTQLLAALDYLTNSSAVRDRVDRNRLAVIGHSMGGGGALVAADQRPSLKAAIGLAPYKPSGNLANNRVPTLILSGQNDTVVTPSYLDGLYPTLPAATPGAYILLSGADHLFFTRPNDIEMRSQIPWLKTFVDNDTRYSQFLCPTLKDTTSVARSTAKCSLIPSGGNPSTPPSSSSPSPSSPASSSPPPSGAKHIVGAQSGRCVDVPNSSRTNGTRVQLYDCHSGTNQQWTYTSSRQLTVYGSMCLDAAGSGNGAAVQIYSCNGQANQQWNVNSNGTISGVQSGRCLDVWGTNNGQQIQLYDCHGQANQRFSLS [TEP054] | 60.7 | 297 | 3 | 8 ± 1.4 | 9.5 ± 0.71 | < 3 | < 3 | < 3 | < 3 | < 3 | 14 ± 4.2 | 24 ± 2.8 | 35 | 18 ± 2.8 | 2 ± 2.8 | 7 ± 1.4 | 7.5 ± 2.1 | 1.5 ± 2.1 |
| MNAVGPTTPPTTTPPTTPAGDNPYQRGPDPTVASVAAQYGPFATAQITVPPGNGFNGGFIYYPTDSSHTYGAVAIVPGYTALFADEEAWMGPRLASFGFVVIGVETNSRTDYDTARGTQLLAALDYLTNSSAVRDRVDRNRLAVIGHSMGGGGALYAATQRPSLKAAIGLAPFKPSGNLASDTVPTMIIGGINDTTVTPSYLDGLYPTLPAATPGAYLQLANADHLYFTRPNDIEMRSQIEWLKIFVDNDTRYTPFLCPSIKDTTGIVRSNVKCSTIPGGGSTSPPTTTPPPAGSNRIVGAQSGRCVDVPGASQTNGTRVQLYDCNGQPNQAWTLTASKQLTVYGSRCLDAAGSGNGSAVQIYSCNGQANQQWNVNANGTITGVQSGRCLDVWGTGNGQQVQIYDCNGQANQRFGLS [ESM052] | 61.6 | 248 | 4.5 ± 0.71 | 7.5 ± 0.71 | < 3 | < 3 | < 3 | < 3 | < 3 | < 3 | 13.5 ± 2.1 | 28.5 ± 2.1 | 36.5 ± 3.5 | 17.5 ± 7.8 | < 3 | 7.5 ± 0.71 | 5.5 ± 0.71 | < 3 |
| MPPPDSGAAAHERVHAEPSDPATVGSAGGNPFARGPDPTLASVAAEFGPFATTQLSVPPGHGFNGGYVYYPTDASPTFGAVAIVPGYTALFADEEAWMGPRLASFGFVVIGIETNSREDWDRARGAQLLAALDYVTQHSTVRTRVDSSRLAVIGHSMGGGGAFAAATRRPSLKAVVGLAPYFPSGDLATVRVPTLIIGGQRDTTVTPSYLDDLYATLPTRTPSAYLMLADADHLFPTRPNPVEMRLLIPWLKIFVDRDTRYVRFLCPLADRSGIAQYRVTCPLVPPA [TEP003] | 67.6 | 152 | – | – | – | – | – | – | – | – | < 3 | < 3 | < 3 | < 3 | < 3 | < 3 | < 3 | < 3 |
| MPPPPPPPPPVQTVTVEPGYGFGGGTIYYPQESTGRLPVVAAVPGFTETQEAVAWYGPLLARRGNIVITIDTISPTNAPKTRADQALAAIDYVVTQSAVSDIADASRTAVMGHSMGGGASLFAALKRPTLKAIVPLAPWARTTDFSGVAVPTLIVGCENDGIAAVGTYAEPFYESIPATTPKAYLEMAGGNHYCTNSEDPVIAGYVSAWTDRFLKGDTTASSRLCPPSPVGPISEYRSNCPY [TEP189] | 67 | 153 | – | – | – | – | – | – | – | – | < 3 | 8 | 56 | 62 | < 3 | < 3 | 23 | 22 |
| MRPGRVCPDSCGCRPSSRRKDATIVQQLRNETIGSPSPHRAPRRFRPRLVRAGLAALLAAGGLFTAQSGSAGAAQNPYERGPAPTVSSIEAPRGPYAVSETRVSSLGVTGFGGGTLYYPTTTRDGTFGAVAISPGYGGTQSSISWLGPRLASQGFVVFTIDTLSTLDQPAGRGGQLLAALDYLTQRSSVRDRVDSGRLGVMGHSMGGGGSLEAAKSRPALQAAIPLTGWNLDKTWQELRTPTLVVGADGDTIAPVSSHSEPFYESLAGSLDKAYLELNGASHFTPNSSNTTIAKYSVSWLKRFIDNDLRYEQFLCPLPRPGATIEEYRGNCPHTS [TEP099] | 50.2 | 68.5 | – | – | – | – | – | – | – | – | < 3 | < 3 | < 3 | < 3 | < 3 | < 3 | < 3 | < 3 |
| NPYERGPAPTTSSIEASRGSFATSTTTVSRLAVSGFGGGTIYYPTSTASGTFGAVSIAPGFTATQSSMAWLGPRLASQGFVVFTIDTITTSDQPDSRGRQLLSSLDYLTQQSSVRSRIDSSRLGVVGHSMGGGGTLEAARSRPSLQAAVPLTGWNLTKSWSTVRVPTLVVGAQADTVAPVASHSIPFYTSLPSSLDKAYLELRGASHFAPNSANTTIAKYTLSWLKRFIDDDTRYEQFLCPIPGTSTTISDYRGNCPHAG [ESM140] | 51.7 | 187 | – | – | – | – | – | – | – | – | < 3 | 5 | 22 | 33 | < 3 | 4 | 8 | 9 |
| NPYERGPDPTTASIEASRGSFATSTVTVSRLAVSGFGGGTIYYPTTTTAGTFGAISIAPGFTATQSSMAWLGPRLASQGFVVFTIDTITTSDQPDSRGRQLLASLDYLTQQSSVRSRIDSSRLGVVGHSMGGGGTLEAARSRPSLQAAVPLTGWNLTKNWSTLRVPTLVVGAQSDTIAPVASHSIPFYTSLPSTLDRAYLELRGASHFAPNTSNTTIAKYTLSWLKRFIDNDTRYEQFLCPIPSSSLSISDYRGNCPHNG [ESM167] | 55.3 | 254 | < 3 | 4 | 6.5 ± 0.71 | 7.5 ± 0.71 | < 3 | < 3 | 2 ± 2.8 | 2.5 ± 3.5 | 2 ± 2.8 | 12.5 ± 2.1 | 21 ± 4.2 | 35.5 ± 0.71 | < 3 | 10.5 ± 2.1 | 20 ± 1.4 | 26 ± 1.4 |
| QAPDRTALARTGPYQVAYYTQLPPAAEFSAATLFFPANKAQAFGGVVIAPGYTEKQVNVQWWGYHLASHGYAVLVLDTNDPEEYPDRRADALMAGVAVLRGENTRMGSTLRGKILEGRIALMGHSMGGGGTLLAANGHSDQLKTIIPFTPWLPGADFSAVSVPTLVLAGEIDRIAAVKDHAWPHYESLTGAVPRMYLEVKGGNHYIANSMTDREDRNPNIDVHDLVGSMVVAWLKTFLDDDESYRELVFGDLPEADRVRISRLEFVE [TEP006] | 53.5 | 215 | < 3 | < 3 | < 3 | < 3 | < 3 | < 3 | < 3 | < 3 | < 3 | < 3 | < 3 | < 3 | < 3 | < 3 | < 3 | < 3 |
| QDNSQGRYRPEGRQIGVAAGREFGERIYEVRTYETNPGIAEFADVMVFYPLTLSFDRPNGAIAFSPGFRAAADNYEWWGPALASLGYNVFILNTNEPTDDLDARADALAALVDFIKAENANPDSPVANKIDEEKIALMGHSMGGGAALAAADRLGDAVGAVIPLALYCCNPGGSFEGDYGSLSAAALVIASAEDTVAPPEAHARLLYDSLGSENKIYMEFAAGDHMFPANGGPELATMGRFTLAFLKAYLDGVAGLEQHVTSPSDEYAERFSTYLAP [TEP035] | 52.3 | 51.6 | – | – | – | – | – | – | – | – | < 3 | < 3 | < 3 | < 3 | – | – | – | – |
| QPTLESLGNPGPYQVAYYDQLPEVDEYGAATLYFPANRGTDFGGVAIAPGFIEQQENIEWWGRHLASYGFAVLVLDTNNPRDDPQVRSEALLAALDVIRGEGARSGSPIRGKILNDRMAVMGHSMGGGGTLLAANRASDQLKAIIPFTPWLPNADFSSVAVPTLVLAGEVDRIASVAEHAWPHFQTLPEGIPRMYVEIAGGNHFIANSTTDQERLNPNIDVHDLVGALGVAWLKYFVDGDEDYRDLIYGELPAEQRARLSRFEFVQ [TEP107] | 44.5 | 57.2 | – | – | – | – | – | – | – | – | < 3 | < 3 | < 3 | < 3 | < 3 | < 3 | < 3 | < 3 |
| QSAEASPPHGPDPTEESITAPRGPFEIDQKTVSRASVRGFGGGTIYYPTDTSEGTFSAVAIAPGYTAGQESLAWLGPRLASQGFVVFTIDTLTRYDQPDSRSRQLLAALDHLTDDSDVADRVDPARRGVMGHSMGGGGSLQAALDDPDLKAAIPMTPWHTTKDFSGVRTPTLIIGAQNDTVAPVSQHAKPFYESLPDDPGKAYLELAGASHFAPNVDNTTIARYSIAWLKRFLDDDTRYEQFLCPPPPDPAISDHQSTCPY [TEP105] | 61.6 | 207 | < 3 | < 3 | 5 ± 1.4 | 7.5 ± 0.71 | < 3 | < 3 | < 3 | 10 ± 4.2 | < 3 | 15.5 ± 0.71 | 46.5 ± 0.71 | 59.5 ± 0.71 | < 3 | 10.5 ± 0.71 | 101 ± 1.4 | 118 ± 13 |
